Results published in patent US20090130692A1.

T1: human plasmin (Human), P00747
T1 chain: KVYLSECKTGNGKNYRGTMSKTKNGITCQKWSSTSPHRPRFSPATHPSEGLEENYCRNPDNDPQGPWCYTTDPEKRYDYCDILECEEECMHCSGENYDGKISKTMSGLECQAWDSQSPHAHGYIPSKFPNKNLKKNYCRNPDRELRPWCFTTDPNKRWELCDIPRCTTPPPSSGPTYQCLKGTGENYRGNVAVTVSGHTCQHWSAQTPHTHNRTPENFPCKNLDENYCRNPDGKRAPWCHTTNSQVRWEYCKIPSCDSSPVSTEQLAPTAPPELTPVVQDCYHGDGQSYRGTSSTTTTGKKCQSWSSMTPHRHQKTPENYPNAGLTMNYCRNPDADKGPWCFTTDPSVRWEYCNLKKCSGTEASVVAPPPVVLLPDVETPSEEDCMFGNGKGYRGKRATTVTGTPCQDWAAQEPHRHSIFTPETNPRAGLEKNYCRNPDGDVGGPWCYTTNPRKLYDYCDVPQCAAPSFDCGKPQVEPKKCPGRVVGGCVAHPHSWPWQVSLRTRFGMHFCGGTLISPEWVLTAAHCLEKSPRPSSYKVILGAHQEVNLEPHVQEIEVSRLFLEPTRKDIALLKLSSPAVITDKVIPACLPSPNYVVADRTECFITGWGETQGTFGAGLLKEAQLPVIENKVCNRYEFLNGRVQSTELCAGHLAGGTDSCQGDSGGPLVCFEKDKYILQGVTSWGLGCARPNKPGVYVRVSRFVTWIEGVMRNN

T2: porcine trypsin (Porcine), P00761
T2 chain: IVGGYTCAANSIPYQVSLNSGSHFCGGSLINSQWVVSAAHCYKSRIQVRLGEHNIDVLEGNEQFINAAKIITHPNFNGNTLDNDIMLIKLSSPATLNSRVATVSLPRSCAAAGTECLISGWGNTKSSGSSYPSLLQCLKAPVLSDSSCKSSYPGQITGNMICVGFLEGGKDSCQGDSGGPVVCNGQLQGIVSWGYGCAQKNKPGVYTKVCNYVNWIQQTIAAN


Key:
[1] = target: bovine pancreatic trypsin (bovine), P00760; experiment: enzyme inhibition; residual trypsin activity fitted to tight-binding equation (Morrison); apparent Ki (Kiapp)
[2] = target: sheep tryptase ST2 (Sheep); experiment: enzyme inhibition, selectivity panel; apparent Ki (Kiapp)
[3] = target: T1, human plasmin (Human), P00747; experiment: as above
[4] = target: T2, porcine trypsin (Porcine), P00761; experiment: as above
[5] = target: human tryptase β-II (Human), P20231; experiment: as above
[6] = target: human tryptase β-Ia (Human), Q15661; experiment: as above
[7] = target: hK3 (human kallikrein) (Human), P07288; experiment: as above
Chain of hK3 (human kallikrein) (Human), P07288 (P07288 25-261): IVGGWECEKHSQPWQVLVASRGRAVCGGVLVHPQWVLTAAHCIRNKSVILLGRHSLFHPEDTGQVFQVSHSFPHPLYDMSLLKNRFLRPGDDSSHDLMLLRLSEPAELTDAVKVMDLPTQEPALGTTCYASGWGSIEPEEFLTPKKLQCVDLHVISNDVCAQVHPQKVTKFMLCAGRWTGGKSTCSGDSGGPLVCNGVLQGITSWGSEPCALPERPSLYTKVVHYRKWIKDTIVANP

Chain of bovine pancreatic trypsin (bovine), P00760 (P00760 24-246): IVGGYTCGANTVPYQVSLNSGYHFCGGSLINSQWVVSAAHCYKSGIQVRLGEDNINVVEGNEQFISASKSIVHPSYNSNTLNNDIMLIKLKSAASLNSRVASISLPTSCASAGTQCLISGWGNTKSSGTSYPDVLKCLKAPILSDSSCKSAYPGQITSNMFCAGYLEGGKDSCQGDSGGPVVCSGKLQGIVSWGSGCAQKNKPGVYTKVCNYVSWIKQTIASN
Chain of human tryptase β-Ia (Human), Q15661 (Q15661 31-275 limits assumed): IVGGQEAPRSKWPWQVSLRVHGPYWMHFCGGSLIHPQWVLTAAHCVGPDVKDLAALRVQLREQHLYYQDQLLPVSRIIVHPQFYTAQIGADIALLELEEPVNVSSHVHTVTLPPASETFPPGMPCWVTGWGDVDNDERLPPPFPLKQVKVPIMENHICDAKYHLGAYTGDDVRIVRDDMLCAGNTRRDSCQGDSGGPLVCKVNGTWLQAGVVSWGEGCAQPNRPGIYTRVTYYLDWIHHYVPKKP
Chain of sheep tryptase ST2 (Sheep) (Q9XSM2 29-273): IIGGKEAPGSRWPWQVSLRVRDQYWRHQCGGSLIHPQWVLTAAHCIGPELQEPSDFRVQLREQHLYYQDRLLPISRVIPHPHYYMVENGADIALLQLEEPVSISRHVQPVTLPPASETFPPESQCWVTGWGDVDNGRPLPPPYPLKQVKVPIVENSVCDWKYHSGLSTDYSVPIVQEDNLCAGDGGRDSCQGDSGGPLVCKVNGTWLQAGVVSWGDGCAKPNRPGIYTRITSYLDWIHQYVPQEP
Chain of human tryptase β-II (Human), P20231 (P20231 31-275 limits assumed): as the sequence (Q15661 31-275 limits assumed) above, with H21R, G22D, P23R counted along it

Binder	Ki [1] [nM]	Ki [2] [nM]	Ki [3] [nM]	Ki [4] [nM]	Ki [5] [nM]	Ki [6] [nM]	Ki [7] [nM]
KKVGVCPKILKKCRRDSDCPGACICRGNGYCG (modifications not checked) [MCoTI-KKV]	0.4	100	400	0.4	4	3	
GVCPKILAKCRRDSDCPGACICRGNGYCG (modifications not checked) [MCoTI-LAKC]	0.2						
GVCPKILKACRRDSDCPGACICRGNGYCG (modifications not checked) [MCoTI-LKAC]	0.4						
GVCPKILKKCRRDSDCPGACICRGNGYCG (modifications not checked) [SE-MC-K]	0.3						
GVCPKILKRCRRDSDCPGACICRGNGYCG (modifications not checked) [MCoTI-LKRC]	0.4						
GVCPKILRKCRRDSDCPGACICRGNGYCG (modifications not checked) [MCoTI-LRKC]	0.5						
GVCPGILKKCRRDSDCPGACICRGNGYCG (modifications not checked) [MCoTI-AlaG]	1000						
GVCPRILKKCRRDSDCPGACICRGNGYCG (modifications not checked) [MCoTI-R]	0.8	1000		0.8	40	40	100
GVCPKILKKCRRDSDCLAGCVCGPNGFCGS (modifications not checked) [SE-MG-0]	0.3	4000	600	0.3	70	70	
GSVCPKILKKCRRDSDCLAGCVCGPNGFCGS (modifications not checked) [MCoEeTI]	0.03						
